Experimental data: PMC3709506, “Comparative cross-linking and mass spectrometry of an intact F-type ATPase suggest a role for phosphorylation” (Nature Communications, 2013)

T1: chloroplast ATP synthase (cATPase) subunit γ (Spinacia oleracea, UniProt P05435 42-364)
T1 construct: ATP synthase gamma chain, chloroplastic, Spinacia oleracea; also called γ-subunit; source: purified from spinach leaves as part of the intact F1FO chloroplast ATP synthase
T1 sequence (looked up): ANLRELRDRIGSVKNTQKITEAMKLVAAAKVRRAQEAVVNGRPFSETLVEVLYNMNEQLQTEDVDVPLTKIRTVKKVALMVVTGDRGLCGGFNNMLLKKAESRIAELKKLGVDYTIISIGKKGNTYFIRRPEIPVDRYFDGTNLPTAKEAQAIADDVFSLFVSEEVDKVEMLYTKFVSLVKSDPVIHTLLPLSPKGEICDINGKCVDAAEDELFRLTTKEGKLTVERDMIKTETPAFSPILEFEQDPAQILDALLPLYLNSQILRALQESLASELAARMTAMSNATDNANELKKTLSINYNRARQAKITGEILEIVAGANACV

B1: chloroplast ATP synthase (cATPase) subunit β, untreated enzyme (natural protein, Spinacia oleracea, UniProt P00825 1-498, looked up)
chain: MRINPTTSDPGVSTLEKKNLGRIAQIIGPVLDVAFPPGKMPNIYNALIVKGRDTAGQPMNVTCEVQQLLGNNRVRAVAMSATDGLTRGMEVIDTGAPLSVPVGGATLGRIFNVLGEPVDNLGPVDTRTTSPIHRSAPAFTQLDTKLSIFETGIKVVDLLAPYRRGGKIGLFGGAGVGKTVLIMELINNIAKAHGGVSVFGGVGERTREGNDLYMEMKESGVINEQNIAESKVALVYGQMNEPPGARMRVGLTALTMAEYFRDVNEQDVLLFIDNIFRFVQAGSEVSALLGRMPSAVGYQPTLSTEMGSLQERITSTKEGSITSIQAVYVPADDLTDPAPATTFAHLDATTVLSRGLAAKGIYPAVDPLDSTSTMLQPRIVGEEHYEIAQRVKETLQRYKELQDIIAILGLDELSEEDRLTVARARKIERFLSQPFFVAEVFTGSPGKYVGLAETIRGFQLILSGELDSLPEQAFYLVGNIDEATAKAMNLEMESKLKK
modifications: phosphosites identified at S8, T54
notes: ATP synthase subunit beta, chloroplastic, Spinacia oleracea; K498 is called the carboxy-terminal residue; Three copies stand in the F1 head (α3β3); also called β-subunit; source: purified from spinach leaves as part of the intact F1FO chloroplast ATP synthase
B2: cATPase subunit β, dephosphorylated enzyme (natural protein, Spinacia oleracea, UniProt P00825 1-498, looked up)
chain: B1 chain
notes: ATP synthase subunit beta, chloroplastic, Spinacia oleracea; as m2 but treated with phosphatase; The whole complex was treated with the phosphatase; also called β (dephosphorylated form)
B3: cATPase subunit α, dephosphorylated enzyme (natural protein, Spinacia oleracea, UniProt P06450 1-507, looked up)
chain: MATIRADEISKIIRERIEGYNREVKVVNTGTVLQVGDGIARIHGLDEVMAGELVEFEEGTIGIALNLESNNVGVVLMGDGLMIQEGSSVKATGRIAQIPVSEAYLGRVINALAKPIDGRGEITASESRLIESPAPGIMSRRSVYEPLQTGLIAIDAMIPVGRGQRELIIGDRQTGKTAVATDTILNQQGQNVICVYVAIGQKASSVAQVVTNFQERGAMEYTIVVAETADSPATLQYLAPYTGAALAEYFMYRERHTLIIYDDLSKQAQAYRQMSLLLRRPPGREAYPGDVFYLHSRLLERAAKLSSLLGEGSMTALPIVETQAGDVSAYIPTNVISITDGQIFLSADLFNAGIRPAINVGISVSRVGSAAQIKAMKKVAGKLKLELAQFAELEAFAQFASDLDKATQNQLARGQRLRELLKQPQSAPLTVEEQVMTIYTGTNGYLDSLELDQVRKYLVELRTYVKTNKPEFQEIISSTKTFTEEAEALLKEAIQEQMERFLLQEQA
notes: ATP synthase subunit alpha, chloroplastic, Spinacia oleracea; as m1 but treated with phosphatase; The whole complex was treated; also called α (dephosphorylated form)
B4: chloroplast ATP synthase (cATPase) subunit II, untreated enzyme (natural protein, Spinacia oleracea, UniProt P31853 76-222, looked up)
chain: EEIEKASLFDFNLTLPIIMAEFLFLMFALDKIYYTPLGDFMDKRDASIKEQLSGVKDTSSEVKQLEEQANAVMRAARAEISAALNKMKKETQLEVEAKLAEGRKKIEVELQEALGSLEQQKEDTIKSLDSQISALSDDIVKKVLPVS
modifications: phosphosites identified at S122, S211
notes: ATP synthase subunit b' (CF0 subunit II), chloroplastic, Spinacia oleracea; also called stator subunit II; peripheral stalk subunit II; source: purified from spinach leaves as part of the intact F1FO chloroplast ATP synthase
B5: cATPase subunit II, dephosphorylated enzyme (natural protein, Spinacia oleracea, UniProt P31853 76-222, looked up)
chain: B4 chain
notes: ATP synthase subunit b' (CF0 subunit II), chloroplastic, Spinacia oleracea; as m6 but treated with phosphatase; The whole complex was treated with the phosphatase; also called II (dephosphorylated form)
B6: cATPase subunit ε, dephosphorylated enzyme (natural protein, Spinacia oleracea, UniProt P00833 1-134, looked up)
chain: MTLNLCVLTPNRSIWNSEVKEIILSTNSGQIGVLPNHAPTATAVDIGILRIRLNDQWLTLALMGGFARIGNNEITILVNDAERGSDIDPQEAQQTLEIAEANLRKAEGKRQKIEANLALRRARTRVEASNTISS
notes: ATP synthase epsilon chain, chloroplastic, Spinacia oleracea; as m4 but treated with phosphatase; The whole complex was treated with the phosphatase; also called ε (dephosphorylated form)
B7: chloroplast ATP synthase (cATPase) subunit ε, untreated enzyme (natural protein, Spinacia oleracea, UniProt P00833 1-134, looked up)
chain: B6 chain
modifications: phosphosite identified at S13
notes: ATP synthase epsilon chain, chloroplastic, Spinacia oleracea; also called ε-subunit; source: purified from spinach leaves as part of the intact F1FO chloroplast ATP synthase

How the values were obtained:
Settings in all cases: both partners purified
[1] = target: T2, chloroplast ATP synthase (cATPase) subunit α, untreated enzyme (Spinacia oleracea, UniProt P06450 1-507, phosphosites identified at S127, Y196, S369, T442); assay: cross-linking; untreated cATPase, 1:1 mixture of 2.5 mM BS3-d4 and 2.5 mM BS3-d0, 1 h at room temperature; NuPAGE gel, in-gel digestion, LC-MS/MS, MassMatrix search, manual validation
T2 construct: ATP synthase subunit alpha, chloroplastic, Spinacia oleracea; Three copies stand in the F1 head (α3β3); also called α subunit; source: purified from spinach leaves as part of the intact F1FO chloroplast ATP synthase

[2] = target: B3; assay: cross-linking; comparative: dephosphorylated cATPase (calf intestinal alkaline phosphatase, 37 °C) cross-linked with 2.5 mM deuterated BS3, untreated cATPase with non-deuterated BS3, pooled; areas of extracted ion chromatograms of heavy and light cross-links compared
[3] = target: B2; assay: as above
[4] = target: B1; assay: cross-linking; untreated cATPase, 1:1 mixture of 2.5 mM BS3-d4 and 2.5 mM BS3-d0, 1 h at room temperature; NuPAGE gel, in-gel digestion, LC-MS/MS, MassMatrix search, manual validation
[5] = target: T1, chloroplast ATP synthase (cATPase) …; assay: as above

Binder: B1
binding result [1]: binds

Binder: B2
binding result [2]: binds

Binder: B3
fold decrease of cross-link intensity against the untreated enzyme (two cross-links, β loops to α C-terminal domain) [3]: > 10 fold
fold decrease of the intensity of the K378-K498 cross-link against the untreated enzyme [3]: ~5 fold

Binder: B4
binding result [4]: binds
binding result [1]: binds

Binder: B5
binding result [2]: binds
binding result [3]: binds

Binder: B6
binding result [2]: binds
binding result [3]: binds

Binder: B7
binding result [4]: binds
binding result [5]: binds
binding result [1]: binds
